Laboratory results taken from US20240317834A1, “COMPOSITIONS AND METHODS FOR NEUROLOGICAL DISEASES” (CODA BIOTHERAPEUTICS, INC., priority 2020, published 2024).

Test system: Lenti-X 293T cells
Test: YFP fluorescence quenching anion reporter plate reader assay of engineered receptors stimulated with acetylcholine or a non-native ligand
Format: cell-based
Procedure, shortened: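 YFP quench was followed for about 1 min 43 s after ligand delivered in iodide-based ECS, pH 7.2. Values are end-of-read fluorescence (last 10 s) divided by the pre-ligand baseline (15 s). Cells were LX293T, transfected with receptor DNA a day before the assay.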

B1: CODA807: engineered chimeric LGIC receptor, Y115D, L131E in SEQ ID NO: 33 (protein)
chain: MRCSPGGVWLALAASLLHVSLQGEFQRKLYKELVKNYNPLERPVANDSQPLTVYFSLSLLQIMDVDEKNQVLTTNIWLQMSWTDHYLQWNVSEYPGVKTVRFPDGQIWKPDILLDNSADERFDATFHTNVEVNSSGHCQYLPPGIFKSSCPMDLKNFPMDVQTCKLKFGSWSYGGWSLDLQMQEADISGYIPNGEWDLVGIPGKRSERFYECCKEPYPDVTFTVTMRRRMGYYLIQMYIPSLLIVILSWISFWINMDAAPARVGLGITTVLTMTTQSSGSRASLPKVSYVKAIDIWMAVCLLFVFSALLEYAAVNFVSRQHKELLRFRRKRRHHKSPMLNLFQEDEAGEGRFNFSAYGMGPACLQAKDGISVKGANNSNTTNPPPAPSKSPEEMRKLFIQRAKKIDKISRIGFPMAFLIFNMFYWIIYKIVRREDVHNQ
modifications: synthetic sequence of chimeric LGIC
**Q.** How did the “YFP fluorescence quenching using CNL001” value (1 nM CNL001, first column) turn out when B1 was run?
**A.** 0.885%

**Q.** And the “YFP fluorescence quenching using CNL001” value (1 nM CNL001, second column)?
**A.** −1.707%

**Q.** What about the “YFP fluorescence quenching using TC-5619/Bradanicline” value (1 nM brd) of the same molecule?
**A.** −1.52%

**Q.** What about the “YFP fluorescence quenching using TC-5619/Bradanicline” value (3 nM brd) of the same molecule?
**A.** −5.35%

**Q.** What about the “YFP fluorescence quenching using CNL001” value (10 nM CNL001, first column) of the same molecule?
**A.** −0.567%

**Q.** What about the “YFP fluorescence quenching using CNL001” value (10 nM CNL001, second column) of the same molecule?
**A.** 0.043%

**Q.** What about the “YFP fluorescence quenching using TC-5619/Bradanicline” value (10 nM brd) of the same molecule?
**A.** −3.49%

**Q.** What about the “YFP fluorescence quenching using TC-5619/Bradanicline” value (30 nM brd) of the same molecule?
**A.** −2.16%

**Q.** What about the “YFP fluorescence quenching using Facinicline” value (30 nM fac) of the same molecule?
**A.** 45.76

**Q.** What about the “YFP fluorescence quenching using CNL001” value (50 nM CNL001, first column) of the same molecule?
**A.** 5.141%

**Q.** What about the “YFP fluorescence quenching using CNL001” value (50 nM CNL001, second column) of the same molecule?
**A.** 9.409%

**Q.** What about the “YFP fluorescence quenching using ABT-126” value (50 nM abt) of the same molecule?
**A.** −1.68%

**Q.** And the “YFP fluorescence quenching using CNL001” value (100 nM CNL001, first column)?
**A.** 9.796%

**Q.** What about the “YFP fluorescence quenching using CNL001” value (100 nM CNL001, second column) of the same molecule?
**A.** 11.009%

**Q.** What about the “YFP fluorescence quenching using CNL002” value (100 nM CNL002) of the same molecule?
**A.** −5.71%

**Q.** And the “YFP fluorescence quenching using ABT-126” value (100 nM abt)?
**A.** −2.25%

**Q.** And the “YFP fluorescence quenching using AZD-0328” value (100 nM azd0328)?
**A.** 24.49%

**Q.** And the “YFP fluorescence quenching using TC-5619/Bradanicline” value (100 nM brd)?
**A.** 4.18%

**Q.** And the “YFP fluorescence quenching using Facinicline” value (100 nM fac)?
**A.** 63.92

**Q.** What about the “YFP fluorescence quenching using ABT-126” value (300 nM abt) of the same molecule?
**A.** −2.37%

**Q.** And the “YFP fluorescence quenching using AZD-0328” value (300 nM azd0328)?
**A.** 45.34%

**Q.** What about the “YFP fluorescence quenching using TC-5619/Bradanicline” value (300 nM brd) of the same molecule?
**A.** 70.2%

**Q.** What about the “YFP fluorescence quenching using Facinicline” value (300 nM fac) of the same molecule?
**A.** 79.43

**Q.** What about the “YFP fluorescence quenching using CNL001” value (1 uM CNL001, first column) of the same molecule?
**A.** 27.914%

**Q.** What about the “YFP fluorescence quenching using CNL001” value (1 uM CNL001, second column) of the same molecule?
**A.** 29.109%

**Q.** And the “YFP fluorescence quenching using CNL002” value (1 uM CNL002)?
**A.** 13.03%

**Q.** What about the “YFP fluorescence quenching using ABT-126” value (1 uM abt) of the same molecule?
**A.** 3.68%

**Q.** What about the “YFP fluorescence quenching using TC-5619/Bradanicline” value (1 uM brd) of the same molecule?
**A.** 43.11%

**Q.** What about the “YFP fluorescence quenching using TC-6987” value (1 uM tc6987) of the same molecule?
**A.** 36.07

**Q.** And the “YFP fluorescence quenching using Facinicline” value (10 uM fac)?
**A.** 80.1

**Q.** And the “YFP fluorescence quenching using TC-6987” value (10 uM tc6987)?
**A.** 31.35

**Q.** And the “YFP fluorescence quenching using CNL002” value (30 uM CNL002)?
**A.** 25.2%

**Q.** What about the “YFP fluorescence quenching using AZD-0328” value (30 uM azd0328) of the same molecule?
**A.** 71.21%

**Q.** What about the “YFP fluorescence quenching using Facinicline” value (30 uM fac) of the same molecule?
**A.** 84.91

**Q.** What about the “YFP fluorescence quenching using TC-6987” value (500 uM tc6987) of the same molecule?
**A.** 28.18

**Q.** What about the “percent quench of YFP fluorescence, 30 nM TC-6683” value (TC-6683 30 nM) of the same molecule?
**A.** −26.801%

**Q.** What about the “percent quench of YFP fluorescence, 300 nM TC-6683” value (TC-6683 300 nM) of the same molecule?
**A.** −25.363%

**Q.** And the “percent quench of YFP fluorescence, 3 uM TC-6683” value (TC-6683 3 uM)?
**A.** −23.651%

**Q.** And the “percent quench of YFP fluorescence, 30 uM TC-6683” value (TC-6683 30 uM)?
**A.** −26.235%

**Q.** And the “percent quench of YFP fluorescence, 100 uM TC-6683” value (TC-6683 100 uM)?
**A.** −24.182%

**Q.** What about the “percent quench of YFP fluorescence, 10 uM ach” value (acetylcholine 10 uM) of the same molecule?
**A.** 15.45%

**Q.** What about the “percent quench of YFP fluorescence, 100 uM ach” value (acetylcholine 100 uM) of the same molecule?
**A.** 13.77%

**Q.** What about the “percent quench of YFP fluorescence, 1 mM ach” value (acetylcholine 1 mM) of the same molecule?
**A.** 27.42%

**Q.** What about the “percent quench of YFP fluorescence, 3 mM ach” value (acetylcholine 3 mM) of the same molecule?
**A.** 53.62%
